assay: yeast display, Sf9 membrane polyspecificity reagent, FACS + sequencing; frameworks hold sequencing errors
Outline: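 A nanobody's polyreactivity label depends on the gate it was sorted from. Yeast display cells were stained with 10% biotinylated, detergent-solubilized Sf9 membrane reagent for 1 hour at 4 °C, enriched on streptavidin microbeads and sorted by FACS. The low and high (top ~1%) gates were set on anti-HA fluorescence for expression and streptavidin fluorescence for reagent binding.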

Sequence | polyreactivity (PSR sort gate)
QVQLVESGGGLVQAGGSLRLSCAASGRITYYAMGWYRQAPGKERELVAVISWSGSSTNYADSVKGRFTISRDNAKNTVYLQMNSLKPEDTAVYFCAAENAVTGTDGEYYYWGQGTQVTVSS | high polyreactivity
QVQLVESGGGLVQAGGSLRLSCAASGRIVARNAMRWYSQAPGKERELVGAITYSGGSTYYADSVKGRFTISRDNAKNTVYLPMISLKPEDTAVYYCAAETSKRGRRYYYWGQGTQVTVSS | high polyreactivity
QVQLVESGGGLVQAGGSLRLSCAASGRIVGINVMGWYRQAPGKERELVAAISYRTGSTYYADSVKGRFTISRDNAKNTVYLQMNSLKPEDTAVYYCDAQRRIRTAWYDYWGQGTQVTVSS | high polyreactivity
QVQLVESGGGLVQAGGSLRLSCAASGRIVNFYAMGWYRQAPGKEREFVAAISWSGGSTSYADSVKGRFTISRDTAKKTDYLQMNSLKPEDTAVSYCAVRWSSRSRRYNYWGQGTQVTVSS | high polyreactivity
QVQLVESGGGLVQAGGSLRLSCAASGRIVNYYAMGWYRQAPGKERELVAAINSGGSTDYADSVKGRFTISRDNAKNTVYLQMNSLKPEDTAVYYCNAEKTYLYTDIPGYARFGYWGQGTQVTVSS | high polyreactivity
QVQLVESGGGLVQAGGSLRLSCAASGRIVRNAMGWYRPAPGKEWELVAAITRSGGSTYYADSVKGRFTISRDNAKKTVYLQMNSLKPEDTAVYYCAARHYRSRDGYSGQGTQVTVSS | high polyreactivity
QVQLVESGGGLVQAGGSLRLSCAASGRIVRNAMGWYRQAPGKERELVAAISRSGGSTYDADSVKGRFTISRDNAKNTVYLQMNSLKPEDTAVYYCAKRSTSQSLQVEYWGQGTQVTVSS | high polyreactivity
QVQLVESGGGLVQAGGSLRLSCAASGRIVTSNAMGWYRQAPGKERELVAVISRRGGSTYYADYVKGRFTITRDNAKNTVYLQMNSVKPEDTAVYYCARRPYSYTRYEYWGQGTQVTVSS | low polyreactivity
QVQLVESGGGLVQAGGSLRLSCAASGRIVWGYAMGWYTPAPGKERDLVATITRGGSTNYADSVKGRFTISRDNAKNTVYLQMNSLKPEDTAVYYCARDWGKSEYDYWGQGTQVTVSS | high polyreactivity
QVQLVESGGGLVQAGGSLRLSCAASGRIVYRYAMGWYRQAPGKERELVAAISSGGSTYYADSVKGRFTISRDNAKNTVYLQMNSLKPEDTAVYYCAATWGRGTYYLYYYWGQGTQVTGSS | high polyreactivity
QVQLVESGGGLVQAGGSLRLSCAASGRIWSRYAMGWYRQAPGKERELVAAITQSGTSTYYADSVKGRFTFSRDNAKNTVYLQMNSLKPEDTAVYYCNAYRQYRYDYWGQGTQVTVSS | low polyreactivity
QVQLVESGGGLVQAGGSLRLSCAASGRIYARNAMGWYIQAPGKERELVAAITRGGSTYYADSVKGRFTISRDNAKNTVYLQMNSLKPEDTAVYYCAASYRGSTYKYYYWGQGTQVTVSS | high polyreactivity
QVQLVESGGGLVQAGGSLRLSCAASGRIYGINVMGRYRQAPGKEMELVAAISYRTGSTYYADSVKGRFTISRDNAKNTVYLQMNSLKPEDTEVYYCAVRRPSSYSYGEDYWGQGTQVTVSS | high polyreactivity
QVQLVESGGGLVQAGGSLRLSCAASGRIYKSYAMGWYRQAPGKERELVAAIRSGGSTYYADSVKGRFTISRDNAKNTVYLQMKSLKPEDTAVYYCAADRYSYGSNGYPRFEYYYWGQGTQVTVSS | high polyreactivity
QVQLVESGGGLVQAGGSLRLSCAASGRIYLTNAMGWYRQAPGKERELVAAITSGGSTYYADSVKGRFTISRDNAKNTVYLQMNSLKPEDTAVYYCNADTDRYWPYEYDYWGQGTQVTVSS | low polyreactivity
QVQLVESGGGLVQAGGSLRLSCAASGRIYPKNTMGWYRQERGKERELVAAINWNGGRTYYADSEKGRFTISRDNAKNTVYLPMNSLKPEYTAVYYCAKDGYWDFDYWGQGTQVTVSS | low polyreactivity

Sequence | polyreactivity (PSR sort gate)
QVQLVESGGGLVQAGGSLRLSCAASGRIYPTYTMGWYRQAPGKERELVAAINRGGGSTYYADSVKGRFTISRDTAKNTVYLQLICLKPEDTAVYYCTARTYYRSYGYDYWGQGTQVTVSS | low polyreactivity
QVQLVESGGGLVQAGGSLRLSCAASGRIYRINALGWYRQAPGKERELVATITSGGGSTYADSVKGRFTISRDNAKNTVYLQMNSLKPEDTAVYFCAARSRIGRYTYDYWGQGTQVTVSS | high polyreactivity
QVQLVESGGGLVQAGGSLRLSCAASGRIYRRNTMGWYRQAPGKERELVAAITSSGGSTYADSVKGRFTISRDNAKNTVYLQMISLKPEDSAVYYCATYVAYHRGYRTYDHWGQGTHVTVSS | low polyreactivity
QVQLVESGGGLVQAGGSLRLSCAASGRIYSVYGLGWYRQAPGKDRELVAAISSSAGSTNYADSVKGRFTISRDNAKNTVYLQMNSLKPEDTAVYYCAAYYRRVVYYPTAYYIRKYDYWGQGTQVTVSS | high polyreactivity
QVQLVESGGGLVQAGGSLRLSCAASGRIYSYYAMGWYRQAPGKERELVATINSGGSTNYADSVNGRFTISRDNAKNTVYLQMKSLKPEDTAVYYCGALRDRDITVYYDTGRMYYWGQGTQVNVSS | low polyreactivity
QVQLVESGGGLVQAGGSLRLSCAASGRIYWNTMGWYRPAPGKERELVASISTGGGRTYYADSVKGRFTISRDNAKNTVYLQMNSLKPEDTAVYYCAARRGAGYSRFNYWGQGTQVTVSS | high polyreactivity
QVQLVESGGGLVQAGGSLRLSCAASGRIYWNTMGWYRQAPGKERQLVASISTGGGRTYYADSVKGRFTISRDNAKNTVYLQMNSLKPEDTAVYYCAARRGAGYSRFNYWGQGTQVTVSS | high polyreactivity
QVQLVESGGGLVQAGGSLRLSCAASGRIYYVYGMGWYRQAPGKERELVAAITRSGGSTYYADSVKGRFTISRDNAKNTVYLQMNSLKPEDTAVYYCAASVPYYTGYYYNAYEYWGQGTQVTVSS | high polyreactivity
QVQLVESGGGLVQAGGSLRLSCAASGRIYYWYDMGWYRQAPGKERELVAAISWSGGSTSYADSVKGRFTISRDNAKNTVYLQMNSLKPEDTAVYYCNADLTQYLGPVYEYGYWGQGTQVTVSS | low polyreactivity
QVQLVESGGGLVQAGGSLRLSCAASGRIYYYYTMGWYRQAPGKERELVAGISRSGDRTYYADSVKGRFTISRDIAKNTVYLQMNSLKPEDTAVYYCATRWSSARMDYWGQGTQVTVSS | high polyreactivity
QVQLVESGGGLVQAGGSLRLSCAASGRLFGAYGMGWYRQAPRKERELVAAISNGGRTSYADSVKGRFTISRDNAKNTVYLQMNSLKPEDTAVYYCAAVYWPWYGAYDYWGQGTQVTVSS | high polyreactivity
QVQLVESGGGLVQAGGSLRLSCAASGRLFRHNAMGWYRQAPGKERELVAVISRSTGSTYYADSVKGRFTISRYNAKNTVYLQMNSLKPEDTAVYYCDAKYGSGQRYDYWGQGTQVTVSS | high polyreactivity
QVQLVESGGGLVQAGGSLRLSCAASGRLFRWYAMGGYRQAPGKERELVAAISRSGTSTYYADSVKGRFTISRDNAKNSVYLQMNSLKPEDTAVYYCAADAVIFGMDYWGQGTQVTVSS | low polyreactivity
QVQLVESGGGLVQAGGSLRLSCAASGRMGWYRQAPGKERELVAAITSGDRTNYADSVKGRFTISRDNAKNTVYLQMNSLKREDTAVYYCATEPSWYHGFIDPRGYWGQGTQVTVSS | low polyreactivity
QVQLVESGGGLVQAGGSLRLSCAASGRNFDRNAMGWSRQAPGKERELVARIDPGDDTNYADSVKGRFTISRDNAKNTVYLQMNSLKPEDTAVYYCATDPDYVLYRTAYYEYDYWGQGTQVTVSS | low polyreactivity
QVQLVESGGGLVQAGGSLRLSCAASGRNFFANAMGWYRQAPGKERELVASITRRSGGTYYADSVKGRFTISRDNAKNTVYLQMISLKPEDTAVYYCAARYTFPKDLYYYWGQGTQVTVSS | high polyreactivity
